From publication PMC3036992 come the findings set out here.

This series addresses T1, RB69 DNA polymerase (RB69 pol) (Bacteriophage RB69, UniProt Q38087 1-903, D222A;D327A).
T1 sequence: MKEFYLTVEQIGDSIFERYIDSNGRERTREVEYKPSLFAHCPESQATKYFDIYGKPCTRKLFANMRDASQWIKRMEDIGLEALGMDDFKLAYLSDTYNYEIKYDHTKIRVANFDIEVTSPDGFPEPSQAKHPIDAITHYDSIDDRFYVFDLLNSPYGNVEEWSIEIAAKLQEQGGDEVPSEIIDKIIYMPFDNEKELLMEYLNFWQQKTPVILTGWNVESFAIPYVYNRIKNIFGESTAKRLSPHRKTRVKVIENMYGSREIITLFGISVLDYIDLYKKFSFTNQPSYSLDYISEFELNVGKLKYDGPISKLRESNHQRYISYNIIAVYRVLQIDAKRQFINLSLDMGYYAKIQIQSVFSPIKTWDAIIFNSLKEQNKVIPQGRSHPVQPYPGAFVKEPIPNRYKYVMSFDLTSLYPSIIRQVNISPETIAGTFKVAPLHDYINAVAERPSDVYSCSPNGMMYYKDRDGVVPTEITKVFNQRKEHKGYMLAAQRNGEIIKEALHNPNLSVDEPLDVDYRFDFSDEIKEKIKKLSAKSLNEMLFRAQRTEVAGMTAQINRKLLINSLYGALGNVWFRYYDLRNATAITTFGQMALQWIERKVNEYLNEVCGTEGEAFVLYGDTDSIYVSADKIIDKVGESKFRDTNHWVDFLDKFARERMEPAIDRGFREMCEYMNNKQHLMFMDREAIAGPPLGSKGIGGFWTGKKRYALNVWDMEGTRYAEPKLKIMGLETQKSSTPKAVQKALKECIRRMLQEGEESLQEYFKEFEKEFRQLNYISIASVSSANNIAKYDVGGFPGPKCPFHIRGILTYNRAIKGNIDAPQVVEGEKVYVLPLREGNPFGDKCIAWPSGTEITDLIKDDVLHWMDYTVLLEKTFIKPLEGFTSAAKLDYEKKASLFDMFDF
Description: X-ray crystallography.

B1: P/T cocrystallization duplex (18-mer template/13-mer ddC primer) (dsDNA)
DNA 1: TCAGGTAAGCAGTCCGCG
DNA 2: GCGGACTGCTTAC
modifications: primer 3' terminus dideoxy (ddC)
For the molecule B1, the binding result is recorded as “binds”.
